Measurements reported in paper PMC2756588.

T1: Abp1, P15891
T1 sequence (P15891 535-592, looked up): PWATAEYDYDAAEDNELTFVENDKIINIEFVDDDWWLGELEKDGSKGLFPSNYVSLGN

T2: Bbc1, P47068
T2 sequence (P47068 1-78, looked up): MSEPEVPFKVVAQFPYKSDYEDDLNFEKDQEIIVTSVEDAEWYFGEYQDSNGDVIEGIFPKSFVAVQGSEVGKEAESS

T3: Boi1, P38041
T3 sequence (P38041 1-86, looked up): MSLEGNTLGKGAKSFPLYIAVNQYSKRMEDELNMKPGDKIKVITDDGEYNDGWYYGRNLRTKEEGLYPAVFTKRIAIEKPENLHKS

T4: Boi2, P39969
T4 sequence (P39969 32-116, looked up): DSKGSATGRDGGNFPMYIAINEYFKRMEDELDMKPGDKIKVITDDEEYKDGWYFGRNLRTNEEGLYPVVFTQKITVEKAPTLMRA

T5: Bud14, P27637
T5 sequence (P27637 247-328, looked up): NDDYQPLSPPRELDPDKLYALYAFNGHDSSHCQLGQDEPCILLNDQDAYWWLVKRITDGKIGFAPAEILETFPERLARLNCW

T6: Bzz1-1, P38822
T6 sequence (P38822 478-572, looked up): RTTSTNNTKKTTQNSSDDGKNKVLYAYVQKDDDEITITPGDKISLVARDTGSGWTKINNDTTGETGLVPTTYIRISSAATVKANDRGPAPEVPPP

T7: Bzz1-2, P38822
T7 sequence (P38822 568-633, looked up): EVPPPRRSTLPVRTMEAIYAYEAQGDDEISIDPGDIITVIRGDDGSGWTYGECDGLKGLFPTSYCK

T8: Cdc25, P04821
T8 sequence (P04821 50-136, looked up): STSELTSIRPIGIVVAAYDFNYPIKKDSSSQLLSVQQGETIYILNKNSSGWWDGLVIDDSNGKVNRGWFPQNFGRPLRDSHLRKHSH

T9: Cyk3, Q07533
T9 sequence (Q07533 1-83, looked up): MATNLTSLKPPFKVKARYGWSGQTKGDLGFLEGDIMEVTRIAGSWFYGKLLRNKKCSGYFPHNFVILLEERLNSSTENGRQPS

T10: Fus1, P11710
T10 sequence (P11710 432-512, looked up): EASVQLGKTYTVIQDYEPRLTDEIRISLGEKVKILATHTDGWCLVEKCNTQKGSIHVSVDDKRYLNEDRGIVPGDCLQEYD

T11: Hof1, Q05080
T11 sequence (Q05080 590-669, looked up): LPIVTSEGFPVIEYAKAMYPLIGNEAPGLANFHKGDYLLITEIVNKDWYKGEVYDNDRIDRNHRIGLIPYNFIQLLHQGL

T12: Hse1, P38753
T12 sequence (P38753 208-285, looked up): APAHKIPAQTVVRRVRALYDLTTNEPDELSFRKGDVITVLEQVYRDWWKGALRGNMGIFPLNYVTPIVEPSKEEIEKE

T13: Lsb1, P53281
T13 sequence (P53281 45-122, looked up): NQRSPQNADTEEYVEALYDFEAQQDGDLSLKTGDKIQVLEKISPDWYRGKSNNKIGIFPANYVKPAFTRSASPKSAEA

T14: Lsb3, P43603
T14 sequence (P43603 385-451, looked up): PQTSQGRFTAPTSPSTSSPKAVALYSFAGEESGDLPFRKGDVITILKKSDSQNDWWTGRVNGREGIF

T15: Lsb4, P32793
T15 sequence (P32793 402-468, looked up): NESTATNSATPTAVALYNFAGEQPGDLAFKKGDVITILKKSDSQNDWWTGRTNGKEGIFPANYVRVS

T16: Myo5, Q04439
T16 sequence (Q04439 1072-1160, looked up): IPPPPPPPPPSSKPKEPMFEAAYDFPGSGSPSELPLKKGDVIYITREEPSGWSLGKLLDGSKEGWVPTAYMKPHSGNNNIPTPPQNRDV

T17: Nbp2, Q12163
T17 sequence (Q12163 103-180, looked up): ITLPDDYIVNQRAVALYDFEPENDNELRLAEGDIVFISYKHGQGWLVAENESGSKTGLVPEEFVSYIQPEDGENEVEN

T18: Pex13, P80667
T18 sequence (P80667 295-386, looked up): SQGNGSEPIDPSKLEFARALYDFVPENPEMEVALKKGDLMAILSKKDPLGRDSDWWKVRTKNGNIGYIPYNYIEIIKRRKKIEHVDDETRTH

T19: Pin3, Q06449
T19 sequence (Q06449 53-122, looked up): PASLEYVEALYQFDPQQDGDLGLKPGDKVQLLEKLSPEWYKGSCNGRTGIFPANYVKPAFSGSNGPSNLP

T20: Sla1-2, P32790
T20 sequence (P32790 60-140, looked up): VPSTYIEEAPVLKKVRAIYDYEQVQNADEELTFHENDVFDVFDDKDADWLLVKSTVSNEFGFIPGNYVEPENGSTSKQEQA

T21: Sla1-3, P32790
T21 sequence (P32790 344-424, looked up): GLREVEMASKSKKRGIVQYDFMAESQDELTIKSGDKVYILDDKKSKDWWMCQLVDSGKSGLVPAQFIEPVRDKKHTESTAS


How the values were obtained:
Test in all cases: SPOT array
Abp1, P15891 = biological target: T1, Abp1, P15891; conditions: median of control spots 935
Bbc1, P47068 = biological target: T2, Bbc1, P47068; conditions: median of control spots 796
Bem1-1, P29366 = conditions: median of control spots 4282
Sequence of Bem1-1, P29366 (P29366 55-141): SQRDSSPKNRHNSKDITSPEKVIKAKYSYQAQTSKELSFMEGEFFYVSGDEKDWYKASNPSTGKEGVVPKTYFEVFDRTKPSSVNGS

Bem1-2, P29366 = conditions: median of control spots 4347
Sequence of Bem1-2, P29366 (P29366 139-227): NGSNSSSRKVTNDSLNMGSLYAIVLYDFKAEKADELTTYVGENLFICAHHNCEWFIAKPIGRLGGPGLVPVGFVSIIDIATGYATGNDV

Boi1, P38041 = biological target: T3, Boi1, P38041; conditions: median of control spots 1162
Boi2, P39969 = biological target: T4, Boi2, P39969; conditions: median of control spots 1161
Bud14, P27637 = biological target: T5, Bud14, P27637; conditions: median of control spots 956
Bzz1-1, P38822 = biological target: T6, Bzz1-1, P38822; conditions: median of control spots 4446
Bzz1-2, P38822 = biological target: T7, Bzz1-2, P38822; conditions: median of control spots 4538
Cdc25, P04821 = biological target: T8, Cdc25, P04821; conditions: median of control spots 969
Cyk3, Q07533 = biological target: T9, Cyk3, Q07533; conditions: median of control spots 1451
Fus1, P11710 = biological target: T10, Fus1, P11710; conditions: median of control spots 1200
GST = conditions: median of control spots 978
Hof1, Q05080 = biological target: T11, Hof1, Q05080; conditions: median of control spots 4086
Hse1, P38753 = biological target: T12, Hse1, P38753; conditions: median of control spots 1727
Lsb1, P53281 = biological target: T13, Lsb1, P53281; conditions: median of control spots 388
Lsb3, P43603 = biological target: T14, Lsb3, P43603; conditions: median of control spots 406
Lsb4, P32793 = biological target: T15, Lsb4, P32793; conditions: median of control spots 397
Myo3, P36006 = conditions: median of control spots 468
Myo5, Q04439 = biological target: T16, Myo5, Q04439; conditions: median of control spots 471
Nbp2, Q12163 = biological target: T17, Nbp2, Q12163; conditions: median of control spots 357
Pex13, P80667 = biological target: T18, Pex13, P80667; conditions: median of control spots 1341
Pin3, Q06449 = biological target: T19, Pin3, Q06449; conditions: median of control spots 2171
Rvs167, P39743 = conditions: median of control spots 2707
Sequence of Rvs167, P39743 (P39743 419-482): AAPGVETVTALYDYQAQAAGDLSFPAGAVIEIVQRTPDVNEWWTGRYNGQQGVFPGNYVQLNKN

Sho1, P40073 = conditions: median of control spots 1148
Sequence of Sho1, P40073 (P40073 287-367): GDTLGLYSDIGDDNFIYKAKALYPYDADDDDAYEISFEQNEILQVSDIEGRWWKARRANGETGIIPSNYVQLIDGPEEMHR

Sla1-2, P32790 = biological target: T20, Sla1-2, P32790; conditions: median of control spots 712
Sla1-3, P32790 = biological target: T21, Sla1-3, P32790; conditions: median of control spots 5475

Row | Binder | SPOT intensity (Abp1, P15891) | SPOT intensity (Bbc1, P47068) | SPOT intensity (Bem1-1, P29366) | SPOT intensity (Bem1-2, P29366) | SPOT intensity (Boi1, P38041) | SPOT intensity (Boi2, P39969) | SPOT intensity (Bud14, P27637) | SPOT intensity (Bzz1-1, P38822) | SPOT intensity (Bzz1-2, P38822) | SPOT intensity (Cdc25, P04821) | SPOT intensity (Cyk3, Q07533) | SPOT intensity (Fus1, P11710) | SPOT intensity (GST) | SPOT intensity (Hof1, Q05080) | SPOT intensity (Hse1, P38753) | SPOT intensity (Lsb1, P53281) | SPOT intensity (Lsb3, P43603) | SPOT intensity (Lsb4, P32793) | SPOT intensity (Myo3, P36006) | SPOT intensity (Myo5, Q04439) | further results
1 | FTLPPPPPPPGLDEL | 0 | 0 | 0 | 0 | 0 | 0 | 0 | 7 | 0 | 0 | 2 | 0 | 1 | 116 | 0 | 0 | 0 | 0 | 455 | 234 | SPOT intensity (Nbp2, Q12163): 0; SPOT intensity (Pex13, P80667): 13; SPOT intensity (Pin3, Q06449): 0; SPOT intensity (Rvs167, P39743): 0; SPOT intensity (Sho1, P40073): 0; SPOT intensity (Sla1-2, P32790): 0; SPOT intensity (Sla1-3, P32790): 0
2 | MFLISPPASPPPEFD | 0 | 0 | 0 | 0 | 2 | 0 | 0 | 0 | 0 | 2 | 1 | 0 | 0 | 1 | 0 | 0 | 0 | 0 | 326 | 219 | SPOT intensity (Nbp2, Q12163): 0; SPOT intensity (Pex13, P80667): 12; SPOT intensity (Pin3, Q06449): 65; SPOT intensity (Rvs167, P39743): 0; SPOT intensity (Sho1, P40073): 0; SPOT intensity (Sla1-2, P32790): 0; SPOT intensity (Sla1-3, P32790): 0
3 | VPPPMQPPPIESSNL | 85 | 0 | 0 | 0 | 1 | 0 | 0 | 0 | 0 | 0 | 1 | 1 | 0 | 0 | 0 | 99 | 0 | 48 | 318 | 167 | SPOT intensity (Nbp2, Q12163): 6; SPOT intensity (Pex13, P80667): 27; SPOT intensity (Pin3, Q06449): 114; SPOT intensity (Rvs167, P39743): 0; SPOT intensity (Sho1, P40073): 0; SPOT intensity (Sla1-2, P32790): 2; SPOT intensity (Sla1-3, P32790): 0
4 | DLPLPDLPPEPPTEL | 0 | 0 | 3 | 0 | 2 | 1 | 0 | 0 | 0 | 2 | 0 | 0 | 1 | 566 | 0 | 0 | 0 | 0 | 262 | 101 | SPOT intensity (Nbp2, Q12163): 0; SPOT intensity (Pex13, P80667): 0; SPOT intensity (Pin3, Q06449): 0; SPOT intensity (Rvs167, P39743): 0; SPOT intensity (Sho1, P40073): 0; SPOT intensity (Sla1-2, P32790): 0; SPOT intensity (Sla1-3, P32790): 0
